Results as given in publication PMC2646141.

B1: wild type APOBEC3G prey [human] / wild type APOBEC3G bait [human] (parent)
chain 1: MKPHFRNTVERMYRDTFSYNFYNRPILSRRNTVWLCYEVKTKGPSRPPLDAKIFRGQVYSELKYHPEMRFFHWFSKWRKLHRDQEYEVTWYISWSPCTKCTRDMATFLAEDPKVTLTIFVARLYYFWDPDYQEALRSLCQKRDGPRATMKIMNYDEFQHCWSKFVYSQRELFEPWNNLPKYYILLHIMLGEILRHSMDPPTFTFNFNNEPWVRGRHETYLCYEVERMHNDTWVLLNQRRGFLCNQAPHKHGFLEGRHAELCFLDVIPFWKLDLDQDYRVTCFTSWSPCFSCAQEMAKFISKNKHVSLCIFTARIYDDQGRCQEGLRTLAEAGAKISIMTYSEFKHCWDTFVDHQGCPFQPWDGLDEHSQDLSGRLRAILQNQEN
chain 2: B1 chain 1

Variants of: B1
Experiment: yeast two-hybrid (β-galactosidase activity)
Conditions: with wild type APOBEC3G (A3G) bait [human]; parent: 0.5; read off a plot

Row | Variant | response [OD540]
1 | chain 1 Y124A | 0.062
2 | chain 1 Y124F | 0.05
3 | chain 1 W127A | 0.038
4 | chain 1 W127Y | 0.031

Further lines, results first:

Row | response [OD540] | Variant
5 | 0.5 | chain 1 Y315L
6 | 0.59 | chain 1 Y315A
7 | 0.34 | chain 1 Y315F
8 | 0.042 | chain 1 Y124L
